# Test results as given in patent US20190134153A1, “IMMUNOMODULATORY EFFECT OF INHALED KINASE INHIBITOR PEPTIDES IN LUNG” (MOERAE MATRIX, INC., priority 2017, published 2019).
# Tests used:
# Assay in all cases: Kinase Profiling Assay
# Assay type in all cases: biochemical
# Details in all cases: 100 μM
# Ret (V804L)(h) = Ret (V804L)(h) (Homo sapiens, UniProt P07949, V804L)
# DRAK1(h) = target: T1, DRAK1(h) (Homo sapiens, UniProt Q9UEE5)
# T1 sequence (Q9UEE5 1-414): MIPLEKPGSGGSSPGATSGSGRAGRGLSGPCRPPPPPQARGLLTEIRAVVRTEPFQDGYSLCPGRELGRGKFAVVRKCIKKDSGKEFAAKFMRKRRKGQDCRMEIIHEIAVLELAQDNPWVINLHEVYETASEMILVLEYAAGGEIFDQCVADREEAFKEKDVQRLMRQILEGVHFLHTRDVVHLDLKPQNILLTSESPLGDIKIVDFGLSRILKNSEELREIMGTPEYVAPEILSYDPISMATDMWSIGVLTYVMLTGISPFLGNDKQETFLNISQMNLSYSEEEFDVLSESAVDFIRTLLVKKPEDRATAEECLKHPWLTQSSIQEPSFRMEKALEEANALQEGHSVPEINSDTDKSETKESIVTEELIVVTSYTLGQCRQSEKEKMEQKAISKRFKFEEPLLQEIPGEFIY
# CaMKIIδ(h) = CaMKIIδ(h) (Homo sapiens, UniProt Q13557)
# SAPK2a(T106M)(h) = SAPK2a(T106M)(h) (Homo sapiens, UniProt Q16539, T106M)
# IKKα(h) = target: T2, IKKα(h) (Homo sapiens, UniProt O15111)
# T2 sequence (O15111 1-745): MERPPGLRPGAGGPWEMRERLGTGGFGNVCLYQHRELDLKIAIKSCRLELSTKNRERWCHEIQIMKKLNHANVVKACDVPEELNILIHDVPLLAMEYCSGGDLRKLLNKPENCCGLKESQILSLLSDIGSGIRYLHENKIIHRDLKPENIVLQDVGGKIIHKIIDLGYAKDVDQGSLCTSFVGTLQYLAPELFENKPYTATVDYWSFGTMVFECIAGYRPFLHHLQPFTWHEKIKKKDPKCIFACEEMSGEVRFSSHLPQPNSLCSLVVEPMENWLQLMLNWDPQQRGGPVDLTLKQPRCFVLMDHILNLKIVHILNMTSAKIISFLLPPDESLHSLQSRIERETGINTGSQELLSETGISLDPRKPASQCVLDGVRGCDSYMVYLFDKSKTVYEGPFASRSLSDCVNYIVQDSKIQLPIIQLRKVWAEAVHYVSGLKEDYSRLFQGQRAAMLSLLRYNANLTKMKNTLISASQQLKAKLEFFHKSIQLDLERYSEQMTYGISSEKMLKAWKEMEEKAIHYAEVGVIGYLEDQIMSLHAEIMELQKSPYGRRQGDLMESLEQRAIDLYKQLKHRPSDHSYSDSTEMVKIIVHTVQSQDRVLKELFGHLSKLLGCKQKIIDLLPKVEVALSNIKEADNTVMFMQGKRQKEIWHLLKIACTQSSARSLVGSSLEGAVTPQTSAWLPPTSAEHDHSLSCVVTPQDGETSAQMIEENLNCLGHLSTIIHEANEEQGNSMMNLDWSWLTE
# MELK(h) = MELK(h) (Homo sapiens, UniProt Q14680)
# CDK7/cyclinH/MAT1(h) = CDK7/cyclinH/MAT1(h) (Homo sapiens, UniProt P50613)
# FGFR1(V561M)(h) = FGFR1(V561M)(h) (Homo sapiens, UniProt P11362, V561M)
# NEK11(h) = target: T3, NEK11(h) (Homo sapiens, UniProt Q8NG66)
# T3 sequence (Q8NG66 1-645): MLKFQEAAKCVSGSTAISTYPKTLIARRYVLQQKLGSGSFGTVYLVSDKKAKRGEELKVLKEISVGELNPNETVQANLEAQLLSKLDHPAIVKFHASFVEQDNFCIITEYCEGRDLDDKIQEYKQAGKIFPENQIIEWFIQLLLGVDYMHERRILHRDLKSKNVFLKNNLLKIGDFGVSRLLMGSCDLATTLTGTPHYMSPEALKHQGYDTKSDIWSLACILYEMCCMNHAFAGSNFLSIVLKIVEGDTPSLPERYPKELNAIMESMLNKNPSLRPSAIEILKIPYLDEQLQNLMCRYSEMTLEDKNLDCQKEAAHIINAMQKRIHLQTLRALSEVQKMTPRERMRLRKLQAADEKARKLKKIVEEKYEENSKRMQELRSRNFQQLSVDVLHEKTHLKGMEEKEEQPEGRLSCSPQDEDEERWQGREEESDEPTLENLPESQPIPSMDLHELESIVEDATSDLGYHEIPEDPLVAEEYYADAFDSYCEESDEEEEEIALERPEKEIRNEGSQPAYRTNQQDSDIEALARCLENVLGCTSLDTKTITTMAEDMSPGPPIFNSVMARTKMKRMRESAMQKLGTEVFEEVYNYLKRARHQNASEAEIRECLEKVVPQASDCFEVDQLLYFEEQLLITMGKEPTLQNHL
# Pim-2(h) = Pim-2(h) (Homo sapiens, UniProt Q9P1W9)
# Chain of Pim-2(h) (Q9P1W9 whole entry): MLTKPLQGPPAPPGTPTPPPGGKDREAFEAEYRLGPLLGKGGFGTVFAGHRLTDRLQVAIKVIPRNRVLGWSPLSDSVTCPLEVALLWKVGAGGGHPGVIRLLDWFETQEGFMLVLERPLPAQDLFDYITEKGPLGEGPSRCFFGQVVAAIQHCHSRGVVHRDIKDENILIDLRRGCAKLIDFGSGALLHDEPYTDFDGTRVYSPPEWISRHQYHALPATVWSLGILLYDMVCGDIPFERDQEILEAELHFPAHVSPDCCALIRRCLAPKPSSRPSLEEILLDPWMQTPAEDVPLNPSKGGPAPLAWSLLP
# Chain of CDK7/cyclinH/MAT1(h) (P50613 whole entry): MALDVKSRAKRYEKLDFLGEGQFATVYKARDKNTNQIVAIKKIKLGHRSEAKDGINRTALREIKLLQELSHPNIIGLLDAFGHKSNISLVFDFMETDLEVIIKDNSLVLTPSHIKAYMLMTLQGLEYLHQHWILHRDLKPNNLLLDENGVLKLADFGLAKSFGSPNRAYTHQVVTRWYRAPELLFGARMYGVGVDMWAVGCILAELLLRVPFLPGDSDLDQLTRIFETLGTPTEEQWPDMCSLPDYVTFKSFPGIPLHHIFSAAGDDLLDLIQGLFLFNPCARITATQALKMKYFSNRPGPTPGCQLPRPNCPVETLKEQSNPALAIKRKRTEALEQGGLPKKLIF
# Chain of CDK7/cyclinH/MAT1(h) (P51946 whole entry partner): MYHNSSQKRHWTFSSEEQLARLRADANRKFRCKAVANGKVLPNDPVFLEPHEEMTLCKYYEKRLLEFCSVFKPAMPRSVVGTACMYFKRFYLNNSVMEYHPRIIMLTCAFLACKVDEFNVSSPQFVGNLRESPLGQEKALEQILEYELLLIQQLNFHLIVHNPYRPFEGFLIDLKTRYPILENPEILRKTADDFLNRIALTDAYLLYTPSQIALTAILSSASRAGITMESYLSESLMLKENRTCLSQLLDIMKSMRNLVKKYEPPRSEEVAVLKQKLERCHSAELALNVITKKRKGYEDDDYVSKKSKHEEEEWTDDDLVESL
# Chain of CDK7/cyclinH/MAT1(h) (P51948 whole entry partner): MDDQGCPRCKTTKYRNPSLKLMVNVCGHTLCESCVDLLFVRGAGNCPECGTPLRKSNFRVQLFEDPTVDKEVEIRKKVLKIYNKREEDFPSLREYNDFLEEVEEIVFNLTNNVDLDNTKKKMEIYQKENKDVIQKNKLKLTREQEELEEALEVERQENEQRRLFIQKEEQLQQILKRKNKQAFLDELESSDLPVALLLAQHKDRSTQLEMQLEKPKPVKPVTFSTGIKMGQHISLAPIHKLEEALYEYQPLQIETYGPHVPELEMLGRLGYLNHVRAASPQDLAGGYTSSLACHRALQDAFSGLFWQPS
# Chain of MELK(h) (Q14680 whole entry): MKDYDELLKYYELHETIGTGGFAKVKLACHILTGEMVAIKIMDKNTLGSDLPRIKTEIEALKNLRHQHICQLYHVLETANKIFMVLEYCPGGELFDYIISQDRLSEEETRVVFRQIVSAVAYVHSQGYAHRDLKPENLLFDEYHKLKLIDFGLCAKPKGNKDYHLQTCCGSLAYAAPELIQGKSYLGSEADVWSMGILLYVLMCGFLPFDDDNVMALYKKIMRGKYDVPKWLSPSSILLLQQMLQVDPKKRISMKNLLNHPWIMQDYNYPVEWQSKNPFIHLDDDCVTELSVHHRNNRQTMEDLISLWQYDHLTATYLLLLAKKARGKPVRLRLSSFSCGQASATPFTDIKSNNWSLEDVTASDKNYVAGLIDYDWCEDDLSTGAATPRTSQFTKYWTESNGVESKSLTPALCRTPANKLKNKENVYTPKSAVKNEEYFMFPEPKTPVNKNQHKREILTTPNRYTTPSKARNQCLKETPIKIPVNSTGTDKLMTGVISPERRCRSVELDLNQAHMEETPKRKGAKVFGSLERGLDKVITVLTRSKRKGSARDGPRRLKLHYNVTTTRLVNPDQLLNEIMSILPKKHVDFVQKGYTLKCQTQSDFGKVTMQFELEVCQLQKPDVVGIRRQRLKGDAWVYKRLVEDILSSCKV
# Chain of CaMKIIδ(h) (Q13557 whole entry): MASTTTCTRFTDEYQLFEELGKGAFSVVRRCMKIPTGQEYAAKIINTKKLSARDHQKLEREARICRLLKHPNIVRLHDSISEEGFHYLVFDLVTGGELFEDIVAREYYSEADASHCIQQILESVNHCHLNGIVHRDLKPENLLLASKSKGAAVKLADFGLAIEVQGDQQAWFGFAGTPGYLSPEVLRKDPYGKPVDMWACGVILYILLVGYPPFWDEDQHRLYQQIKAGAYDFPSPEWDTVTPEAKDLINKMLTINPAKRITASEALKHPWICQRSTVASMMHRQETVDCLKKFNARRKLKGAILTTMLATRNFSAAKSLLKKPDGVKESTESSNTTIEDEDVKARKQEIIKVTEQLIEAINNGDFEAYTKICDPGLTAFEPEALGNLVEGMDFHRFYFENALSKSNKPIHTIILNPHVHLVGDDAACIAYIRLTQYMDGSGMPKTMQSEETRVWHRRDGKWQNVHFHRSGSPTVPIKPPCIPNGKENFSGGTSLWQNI
# Chain of FGFR1(V561M)(h) (P11362 22-822 V561M): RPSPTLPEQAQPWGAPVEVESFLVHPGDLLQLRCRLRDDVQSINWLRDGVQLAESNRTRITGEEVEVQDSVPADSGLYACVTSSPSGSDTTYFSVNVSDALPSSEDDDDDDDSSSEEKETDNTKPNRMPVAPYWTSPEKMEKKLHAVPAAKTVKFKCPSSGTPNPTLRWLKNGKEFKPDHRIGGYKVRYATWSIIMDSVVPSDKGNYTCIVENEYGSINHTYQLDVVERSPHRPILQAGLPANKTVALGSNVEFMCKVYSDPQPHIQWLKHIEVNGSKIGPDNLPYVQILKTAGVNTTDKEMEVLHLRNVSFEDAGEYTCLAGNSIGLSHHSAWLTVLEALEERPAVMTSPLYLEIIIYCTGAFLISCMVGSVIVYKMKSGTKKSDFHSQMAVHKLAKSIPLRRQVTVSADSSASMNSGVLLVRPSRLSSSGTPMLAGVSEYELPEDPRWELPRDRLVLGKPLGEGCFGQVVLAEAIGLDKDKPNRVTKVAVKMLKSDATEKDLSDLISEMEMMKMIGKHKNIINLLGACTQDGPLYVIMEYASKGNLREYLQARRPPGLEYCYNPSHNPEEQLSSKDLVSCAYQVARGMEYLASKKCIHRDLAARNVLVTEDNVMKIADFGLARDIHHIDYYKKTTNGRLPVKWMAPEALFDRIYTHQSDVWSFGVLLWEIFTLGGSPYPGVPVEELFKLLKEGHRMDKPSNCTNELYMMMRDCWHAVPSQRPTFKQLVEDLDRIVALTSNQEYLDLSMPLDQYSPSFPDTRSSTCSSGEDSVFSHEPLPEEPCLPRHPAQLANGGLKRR
# Chain of SAPK2a(T106M)(h) (Q16539 whole entry T106M): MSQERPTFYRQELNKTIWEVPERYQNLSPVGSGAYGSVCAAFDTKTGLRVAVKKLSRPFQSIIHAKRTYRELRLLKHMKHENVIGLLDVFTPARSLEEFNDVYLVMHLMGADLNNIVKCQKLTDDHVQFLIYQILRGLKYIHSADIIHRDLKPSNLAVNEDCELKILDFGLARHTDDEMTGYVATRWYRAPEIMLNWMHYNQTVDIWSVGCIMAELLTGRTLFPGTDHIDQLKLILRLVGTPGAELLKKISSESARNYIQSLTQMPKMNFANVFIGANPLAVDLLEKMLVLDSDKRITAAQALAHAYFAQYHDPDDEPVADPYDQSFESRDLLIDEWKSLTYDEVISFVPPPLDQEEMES
Sequence,% activity (Ret (V804L)(h)) [%],% activity (DRAK1(h)) [%],% activity (CaMKIIδ(h)) [%],% activity (SAPK2a(T106M)(h)) [%],% activity (IKKα(h)) [%],% activity (MELK(h)) [%],% activity (CDK7/cyclinH/MAT1(h)) [%],% activity (FGFR1(V561M)(h)) [%],% activity (NEK11(h)) [%],% activity (Pim-2(h)) [%]
FAKLAARLYRKALARQLGVAA [MMI-0300],79,14,1,97,93,16,65,74,53,76
KAFAKLAARLYRKALARQLGVAA [MMI-0400],73,14,2,99,87,17,47,74,33,92
HRRIKAWLKKIKALARQLGVAA [MMI-0500],20,8,1,32,50,0,15,,2,46
YARAAARQARAKALNRQLGVA [MMI-0200],100,34,2,100,,59,67,72,95,74
